Reference: patent US20250277030A1, “ANTI-NAPI2B ANTIBODIES AND METHODS OF USE” (Zymeworks BC Inc., priority 2022, published 2025)

Key:
human NaPi2b = biological target: T1, human NaPi2b (Homo sapiens, UniProt O95436); assay: Flow cytometry binding to HEK293-6e cells transfected with human NaPi2b (Example 5); conditions: transfected HEK293-6e cells, 18-24 hours at 4° C.
T1 construct: host or cells: HEK293-6e
T1 sequence (O95436 1-690): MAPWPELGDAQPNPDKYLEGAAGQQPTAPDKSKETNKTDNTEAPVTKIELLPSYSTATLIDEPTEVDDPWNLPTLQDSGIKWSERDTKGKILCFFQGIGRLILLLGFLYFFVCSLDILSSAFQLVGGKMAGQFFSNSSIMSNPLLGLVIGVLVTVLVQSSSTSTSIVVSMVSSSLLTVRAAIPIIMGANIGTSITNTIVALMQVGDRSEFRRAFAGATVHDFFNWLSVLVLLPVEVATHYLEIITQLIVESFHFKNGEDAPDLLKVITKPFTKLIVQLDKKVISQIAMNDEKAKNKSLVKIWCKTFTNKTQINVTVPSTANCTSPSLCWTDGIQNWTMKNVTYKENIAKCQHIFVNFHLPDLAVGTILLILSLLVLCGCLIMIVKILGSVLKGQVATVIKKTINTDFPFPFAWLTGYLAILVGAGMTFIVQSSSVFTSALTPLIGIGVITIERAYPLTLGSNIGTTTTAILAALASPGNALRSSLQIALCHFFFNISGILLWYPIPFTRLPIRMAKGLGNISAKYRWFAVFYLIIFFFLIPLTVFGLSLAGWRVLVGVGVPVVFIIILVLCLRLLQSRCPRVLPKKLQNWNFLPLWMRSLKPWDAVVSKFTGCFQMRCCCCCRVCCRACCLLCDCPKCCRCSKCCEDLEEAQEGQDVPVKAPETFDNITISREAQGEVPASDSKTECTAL
Description: The binding cross-reactivity of humanized antibody variant v29456 to human, cynomolgus and mouse NaPi2b was assessed by flow cytometry using HEK293-6e transfected cells.
Briefly, HEK293-6e cells were transfected for ˜24 hours to transiently express human NaPi2b, cynomolgus or mouse NaPi2b, at 1 μg of DNA per 1 million cells. Following transfection, 50,000 cells per well were seeded in V-bottom 96-well plates and incubated with 200 nM of primary antibody for 18-24 hours at 4° C. to prevent internalization. Post-incubation, cells were washed and stained with anti-Human IgG Fc AF647 conjugate (Jackson Immuno Research Labs, West Grove, PA, Cat. No. 109-605-098, Lot. No. 124868) at 4° C. for 1 hour. Following staining and washing, fluorescence was detected by flow cytometry on BD LSRFortessa™ Cell Analyzer (BD Biosciences, Franklin Lake, NJ) with 10,000 minimum events collected per well. The AF647/APC-A GeoMean (fluorescence signal geometric mean, proportional to anti-Human AF647 binding) was calculated for the live singlet cell population for each primary antibody using FlowJo™ v8 software (BD Biosciences, Franklin Lake, NJ). The Bmax and Kd of each primary antibody were calculated using GraphPad Prism Version 9 (GraphPad Software, San Diego, CA)

[1] = Capillary isoelectric focusing (cIEF); assay type: physicochemical; conditions: main isoform; 0.5 mg/mL
Description: (§1) The isoelectric point was measured by capillary isoelectric focusing (cIEF), the propensity for self-aggregation was measured by Affinity-capture self-interaction nanoparticle spectroscopy (AC-SINS) and non-specific binding was measured by NS-ELISA, as described below.
cIEF was carried out using Maurice C. (ProteinSimple®) system, System Suitability Kit and Method Development Kit. System suitability standard, fluorescence calibration standard, cartridge and samples were prepared according to vendor's recommendations. The capillary was automatically calibrated with a fluorescence standard preconditioned with Maurice cIEF System Suitability Kit to ensure the capillary was functioning properly. The antibody samples were diluted to a concentration of 0.5 mg/mL in a final volume of 40 μL in Gibco™ Distilled Water, and mixed Maurice cIEF Method Development Kit Samples. The samples were then vortexed, centrifuged and the supernatant pipetted into individual wells of a 96-well plate. All electropherograms were detected with UV absorbance at 280 nm. All data analyses were performed using vendor software Compass for iCE (ProteinSimple®).

ssDNA = assay: NS-ELISA non-specific binding, ssDNA; conditions: mAb at 100 nM
Description: as §1
(§2) NS-ELISA was used to measure the propensity of the antibodies to bind to a range of biomolecules to emulate the undesirable non-specific interactions to biological matrices in vivo as described below.
(§3) NS-ELISA was carried out in Corning®96-well EIA/RIA Easy Wash™ Clear Flat Bottom Polystyrene High Bind Microplate coated overnight at 4° C. with 50 μL of Heparin (Sigma, H3149) diluted with 50 mM sodium carbonate pH 9.6 to a final concentration of 250 μg/mL. The plate was incubated for 2 days at room temperature, wells that were coated with heparin were not covered to allow air dry. […] Reactions were stopped after approximately 10 minutes by adding 100 μL of 1 M HCl to each well, and absorbance was read at 450 nm. Binding scores were calculated as the ratio of the ELISA signal of the antibody (antibody-treated) to the signal of a well containing buffer instead of the primary antibody (untreated). The cutoffs considered for each binding molecule (ssDNA, KLH, insulin, dsDNA and heparin) were internally calculated, based on the average of Zymeworks Inc. produced antibodies and antibodies benchmarks published in the literature.

KLH = assay: NS-ELISA non-specific binding, KLH; conditions: mAb at 100 nM
Description: as §1, §2, §3

B1: v29456: humanized anti-NaPi2b IgG1/kappa antibody H1L2; VH SEQ ID NO:24, VL SEQ ID NO:29 (antibody, V domains shown)
VH: QVQLVQSGAEVKKPGASVKVSCKASGFTFTSYNVHWVRQAPGQGLEWMGAISPGNGDLSYAQKFQGRVTMTRDTSTSTVYMELSSLRSEDTAVYYCARGRTGMGAVDYWGQGTLVTVSS
VL: DVQMTQSPSSLSASVGDRVTITCRASQDVYSYLNWYQQKPGKAVKLLIYYTSRLQSGVPSRFSGSGSGTDYTLTISSLQPEDFATYYCQQYNIFPWTFGQGTKLEIK
modifications: v29452, v29456, v29460 VH (H1); v29453, v29454, v29455, v29456 VL (L2)
Bmax (APC-A GeoMean), Hu NaPi2b (human NaPi2b): 2,538 APC-A GeoMean
Kd (human NaPi2b; highest antibody concentration 200 nM, read-out: Apparent Kd (nM), Hu NaPi2b): 5.2 nM
cIEF pI [1]: 8.53
NS-ELISA binding score (ratio of signal between antibody-treated and untreated), ssDNA (ssDNA): 1.06
NS-ELISA binding score (ratio of signal between antibody-treated and untreated), KLH (KLH): 1.37
